In publication PMC10658506, “An engineered interleukin‐11 decoy cytokine inhibits receptor signaling and proliferation in lung adenocarcinoma” (Bioengineering & Translational Medicine, 2023):

T1: soluble mouse IL-11 receptor (mouse, UniProt Q64385 24-372)
T1 construct: interleukin-11 receptor, mouse (mIL-11R), soluble; also called mIL-11R; source: bought: Sino Biological, 50,075-M08H-100
T1 sequence (looked up): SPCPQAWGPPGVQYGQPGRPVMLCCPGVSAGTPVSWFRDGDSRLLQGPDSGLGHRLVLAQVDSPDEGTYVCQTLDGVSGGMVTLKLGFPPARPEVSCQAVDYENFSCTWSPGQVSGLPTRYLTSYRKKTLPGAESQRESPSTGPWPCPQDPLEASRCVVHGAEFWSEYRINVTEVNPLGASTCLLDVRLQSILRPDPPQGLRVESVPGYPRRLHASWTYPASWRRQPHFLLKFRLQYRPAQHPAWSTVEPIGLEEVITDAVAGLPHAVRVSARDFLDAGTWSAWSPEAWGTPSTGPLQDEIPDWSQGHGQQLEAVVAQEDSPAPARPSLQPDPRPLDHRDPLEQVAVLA

T2: mIL-11R-mFc (mouse, UniProt Q64385 24-372)
T2 construct: interleukin-11 receptor, mouse (mIL-11R), mouse Fc fusion; also called mouse IL-11R; source: bought: R&D Systems, 7405-MR
T2 sequence (looked up): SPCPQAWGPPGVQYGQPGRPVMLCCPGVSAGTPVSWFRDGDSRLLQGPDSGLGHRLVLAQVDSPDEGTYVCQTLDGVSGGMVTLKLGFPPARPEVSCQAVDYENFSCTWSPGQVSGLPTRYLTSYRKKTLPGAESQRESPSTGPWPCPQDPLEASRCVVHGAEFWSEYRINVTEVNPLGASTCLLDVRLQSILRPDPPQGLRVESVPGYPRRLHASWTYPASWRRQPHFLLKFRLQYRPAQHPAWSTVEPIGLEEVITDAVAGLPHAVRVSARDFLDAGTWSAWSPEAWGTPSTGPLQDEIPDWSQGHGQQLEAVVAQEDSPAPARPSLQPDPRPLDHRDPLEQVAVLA

T3: biotinylated IL-11R-Fc (human, UniProt Q14626 24-370, biotin)
T3 construct: interleukin-11 receptor (IL-11R), human, Fc fusion; source: bought: Acro, ILR-H82F5
T3 sequence (looked up): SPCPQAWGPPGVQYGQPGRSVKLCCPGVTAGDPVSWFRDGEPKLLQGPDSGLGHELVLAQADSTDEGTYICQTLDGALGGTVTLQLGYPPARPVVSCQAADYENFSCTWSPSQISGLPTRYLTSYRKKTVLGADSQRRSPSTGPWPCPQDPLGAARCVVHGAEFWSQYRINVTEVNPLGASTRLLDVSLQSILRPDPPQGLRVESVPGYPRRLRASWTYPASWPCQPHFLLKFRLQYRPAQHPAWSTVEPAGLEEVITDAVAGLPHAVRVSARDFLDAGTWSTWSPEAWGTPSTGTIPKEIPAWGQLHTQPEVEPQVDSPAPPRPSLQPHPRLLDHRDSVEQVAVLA


Legend:
[1] = target: T1, soluble mouse IL-11 receptor; assay: flow cytometry on cells; yeast-displayed IL-11 variants incubated with varying concentrations of soluble IL-11R or mIL-11R overnight at room temperature, washed with BPBS; receptor detected with anti-his AF647, display with anti-c-myc; apparent Kd from the fraction bound of the expressing population; details: one partner purified
[2] = target: T2, mIL-11R-mFc; assay: BLI; mIL-11R-mFc loaded on antimouse Fc biosensors at 1.25 ug/mL in kinetics buffer; three-fold serial dilutions of WT IL-11 or enIL-11; apparent Kd; binding to enIL-11 performed by Antibody Solutions; details: both partners purified
[3] = target: T3, biotinylated IL-11R-Fc; assay: BLI; biotinylated IL-11R-Fc loaded on streptavidin biosensors at 1.25 ug/mL in kinetics buffer; three-fold serial dilutions of WT IL-11 or enIL-11; apparent Kd; binding to enIL-11 performed by Antibody Solutions; details: both partners purified

| Binder | Kd [1] [nM] | Kd [2] [nM] | Kd [3] [nM] |
| --- | --- | --- | --- |
| soluble recombinant wild-type human IL-11 (ligand, interleukin-11 (IL-11), human; also called WT IL-11; IL-11 WT; source: E. coli BL21, purified (cobalt beads), cleaved with TEV protease; not shown: His6, N-terminal, cleaved; thioredoxin, N-terminal, cleaved) SPDPRAELDSTVLLTRSLLADTRQLAAQLRDKFPADGDHNLDSLPTLAMSAGALGALQLPGVLTRLRADLLSYLRHVQWLRRAGGSSLKTLEPELGTLQARLDRLLRRLQLLMSRLALPQPPPDPPAPPLAPPSSAWGGIRAAHAILGGLHLTLDWAVRGLLLLKTRL | – | 11 ± 0.3 | 9.5 ± 0.3 |
| enIL-11 (engineered human IL-11, GIPR RA S60T), soluble (designed binder, interleukin-11 (IL-11), human; source: E. coli BL21, purified (cobalt beads), cleaved with TEV protease; not shown: His6, N-terminal, cleaved; thioredoxin, N-terminal, cleaved) SPDPRAELGSIVLRTRSLLADTRQLAAQLRDKFPADGDHNLDSLPTPAMTARALGALQLPGVLTRLRADLLSYLRHVQWLRRAGGSSLKTLEPELGTLQARLDRLLRRLQLLMSRLALPQPPPDPPAPPLAPPSSAAGGIRAAHAILGGLHLTLDWAVRGLLLLKTRL | – | 0.16 ± 0.01 | 0.41 ± 0.01 |

More lines, now with the values ahead:

| Kd [1] [nM] | Kd [2] [nM] | Kd [3] [nM] | Binder |
| --- | --- | --- | --- |
| 3.1 ± 0.8 | – | – | yeast-displayed mouse IL-11 wild-type (ligand, UniProt P47873 22-199, looked up, interleukin-11, mouse; also called mIL-11; mIL-11 WT; not shown: c-myc, C-terminal, kept) PGPPAGSPRVSSDPRADLDSAVLLTRSLLADTRQLAAQMRDKFPADGDHSLDSLPTLAMSAGTLGSLQLPGVLTRLRVDLMSYLRHVQWLRRAGGPSLKTLEPELGALQARLERLLRRLQLLMSRLALPQAAPDQPVIPLGPPASAWGSIRAAHAILGGLHLTLDWAVRGLLLLKTRL |
| 2.2 ± 0.3 | – | – | yeast-displayed wild-type human IL-11 (ligand, UniProt P20809 22-199, looked up, interleukin-11 (IL-11), human, residues Pro22 to Leu199 of the precursor; also called IL-11 WT; WT IL-11; not shown: c-myc, C-terminal, kept) PGPPPGPPRVSPDPRAELDSTVLLTRSLLADTRQLAAQLRDKFPADGDHNLDSLPTLAMSAGALGALQLPGVLTRLRADLLSYLRHVQWLRRAGGSSLKTLEPELGTLQARLDRLLRRLQLLMSRLALPQPPPDPPAPPLAPPSSAWGGIRAAHAILGGLHLTLDWAVRGLLLLKTRL |
